Reference: article PMC6321638

Molecular target: L52A or F85A
Test: pull-down; GST-pulldown: purified His-SOUL (5 µM) and GST-ALG-2 (5 µM) with Glutathione Sepharose 4B in buffer B (100 mM Tris-HCl pH 7.5, 100 mM NaCl, 10% glycerol) with 20 µM CaCl2 (or various amounts of Ca2+), 30 min at 4 °C; SDS-PAGE, Coomassie

binding relative to ALG-2^WT (percent): 80 to 90%
B1: His-SOUL^WT (wild-type SOUL fused to His-tag) (natural protein)
chain: MAEEPEPDLGVAEGSEDQALEMPSWKAPEDIDPQPGSYEIRHYGPAKWVSTCVESLDWDSAIQTGFTKLNGYIQGKNEKEMKIKLTAPVTSYVEPGSSPFSESTITISLYIPSEQQPDPPRPSESDVFIEDRAEMTVFVRSFDGFSSGQKNQEQLLTLANILREEGKVFNEKVFYTAGYSSPFQLLDRNNEVWLIQKNEPSVENK
